{"source": "paper PMC4098843", "about": "(Nature communications, 2014)", "proteins": {"B1": {"name": "AF2299, a CDP-alcohol phosphotransferase from Archaeoglobus fulgidus (enzyme, Archaeoglobus fulgidus DSM 4304, UniProt O27985 1-344, looked up)", "chain": "MRLAYVKNHEIYGEKLLGLTLRERIEKTLQRAGFDVRFFDELSLEEAEDYLIILEPVLILERDLLLEGRKILVSDGFTVGYFFGGDFRTVFDGNLQSSIEKYLSLNNLESYEIWAIKLSNDNLKTAEKLLLSSLIKAKRTGLKPAYYDGWIAREINRKVSLRISRLLADTSVTPNQITVFSFFLSLVGSALFLLNSYLTTLLAGVIIQLHSIIDGCDGEIARLKFMESKYGAWLDGVLDRYSDFIIVFSITYVLSASNPVYWIIGFLAAFASLMIAYTGDKFVAAYMRTYSPEGFAIPITRDFRLLIIFACSVVNLPSLALVIIALLGNFEALRRIVALRSYTN"}}, "biological_target": "the molecule itself", "test": "crystal structure", "data": [{"protein": "B1", "values": [{"measurement": "stoichiometry N", "value": 2}]}]}
